Assay in all cases: cell-based or functional assay
One assay has as its target T1, MMP-7.
T1 sequence (P09237 95-267, species assumed, looked up): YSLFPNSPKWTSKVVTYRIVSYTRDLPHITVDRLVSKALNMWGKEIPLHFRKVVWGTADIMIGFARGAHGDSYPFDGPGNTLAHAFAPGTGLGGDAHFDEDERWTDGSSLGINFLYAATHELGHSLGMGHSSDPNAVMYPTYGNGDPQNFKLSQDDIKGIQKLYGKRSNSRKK

A further assay has as its target MMP-2.
A further assay concerns the target MMP-9.
The target of assay [1] is angiotensin-converting enzyme (ACE).

For NENLLRFFVAPFPEVFG [NENLLRFFVAPFPEVFG (SEQ ID NO:21)], the “IC50 for the inhibition of MMPs using a fluorescein conjugated gelatin” value (“IC50 for the inhibition of MMPs” below) in the assay with MMP-7 was determined as 850 µM; in the assay with MMP-2 it was 275 µM; with MMP-9, 50 µM. In addition, the “IC50 for the inhibition of ACE using the substrate FAPGG” value (“IC50 for the inhibition of ACE” for short) in assay [1] is 55 µM.
Take LNENLLRFFVAPFPEVFG [LNENLLRFFVAPFPEVFG (SEQ ID NO:20)]: the “IC50 for the inhibition of MMPs” value is 300 µM in the assay with MMP-7, 250 µM in the assay with MMP-2 and 150 µM in the assay with MMP-9. Besides, in assay [1], the “IC50 for the inhibition of ACE” value is 280 µM.
Take ENLHLPLPLL [ENLHLPLPLL (SEQ ID NO:19)]: the “IC50 for the inhibition of MMPs” value with MMP-7 was 275 µM; with MMP-2, 200 µM; with MMP-9, 300 µM. In assay [1], the “IC50 for the inhibition of ACE” value worked out at 250 µM.
Regarding ENLLRFFVAPFPEVFG [ENLLRFFVAPFPEVFG (SEQ ID NO:22)], the “IC50 for the inhibition of MMPs” value with MMP-7 was 1000 µM; with MMP-2 it was 425 µM; with MMP-9 it was 150 µM. In assay [1], the “IC50 for the inhibition of ACE” value amounted to 250 µM.
With VENLHLPLPLL [VENLHLPLPLL (SEQ ID NO:18)], the figures for the “IC50 for the inhibition of MMPs” value with MMP-7, with MMP-2 and with MMP-9 were 250 µM, 150 µM and 300 µM, respectively. Also, the “IC50 for the inhibition of ACE” value in assay [1] worked out at 175 µM.
Taken in the same sequence, the figures for FVAPFPEVFG [FVAPFPEVFG (SEQ ID NO:23)] were 300 µM, 500 µM, 400 µM and 650 µM.
The like results for NLHLPLPLL [NLHLPLPLL (SEQ ID NO:12)] were, in that order, 1200 µM, 450 µM, 600 µM and 15 µM.

(Values after patent US20050187155A1 (NESTEC S A, published 2005).)
